In US20250026838A1:

Legend:
[1] = target: Human Galectin-3 (Gal3) protein (human) (UniProt P17931); assay: competition ELISA, hGal3 coated; competitor: biotinylated aggregated alpha-synuclein
[2] = target: Human Galectin-3 (Gal3) protein (human) (UniProt P17931); assay: competition ELISA, hGal3 coated; competitor: biotinylated aggregated phospho-tau

Sequence of Human Galectin-3 (Gal3) protein (human) (P17931 whole entry): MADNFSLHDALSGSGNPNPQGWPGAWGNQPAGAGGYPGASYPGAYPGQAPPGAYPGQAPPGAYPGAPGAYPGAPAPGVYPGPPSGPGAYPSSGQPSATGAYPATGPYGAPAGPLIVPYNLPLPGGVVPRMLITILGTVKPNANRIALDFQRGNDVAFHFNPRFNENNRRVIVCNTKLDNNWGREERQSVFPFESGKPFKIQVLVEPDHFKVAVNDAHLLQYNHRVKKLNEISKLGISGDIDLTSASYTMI

blocking efficacy [1]	blocking efficacy [2]	Binder
> 70%		846.1H5-hIgG4(S228P) (antibody, V domains shown) VH: EVQLLESGGGLVKPGGSLKLSCAASGFTFSSYAMSWVRQTPEKRLEWVASISSGGDTYYPDSVKGRFTISRDNARNILYLQMSSLRSEDTAMYYCASYGNSLFDYWGQGTTLTVSS VL: DVVMTQTPLSLPVSLGDQASISCRSSQSLVHNSGNTYLHWYLQRPGQSPNLLIYKVSNRFSGVPDRFSGSGSGTDFTLKISRVAAEDLGVYFCSQSTHVPPTFGGGTKLEIKR
> 70%	> 70%	846.1B2-hIgG4(S228P) (antibody, V domains shown) VH: QIQLVQSGPELKKPGETVKISCKASGYTFTNYGMNWVKQAPGKGLKWMGWINTYTGEPSYADDFKGRFAFSLETSASTAYLQINNLKNEDMATYFCARWGGYAGDYYAMDFWGQGTSVTVSS VL: NIWLTQSPSSLAVSAGEMVTMTCKSSQSVLYSSNQKNYLAWYQQKPGQSPKLLIYWASTRESGVPDRFTGSGSGTDFSLTISSVQAEDLAVYYCHQYLSSLTFGAGTKLELKR
> 70%	> 70%	2D10-VH0-VL0-hIgG4(S228P) (antibody, V domains shown) VH: QFQLQQSGPELVKPGASVKISCKASGYTFTDYYINWVKQRPGQGLEWIGWIYPGSNDTKYNEKFKGKATLTVDTSSSTAYMQLGSLTSEDSAVYFCANYFGCSGWFFDVWGTGTTVTVSS VL: DIVMTQAAFSNPVTLGTSASISCRSSKSLLHSDGITYLYWYLQRPGQSPQLLIYRMSNLASGVPDRFSGSGSGTDFTLRISRVEAEDVGVYYCAQMIEFPLTFGAGTILELKR
